From the supplement of paper PMC7877785
± gives the uncertainty stated by the source.

Experiment: self-splicing fitness, log relative to wild type (ln ratio); higher = more splicing; Tetrahymena group I intron in knt gene, E. coli kanamycin selection, DiMSum; sequences stand for … in CUCUCU…GGAGGGAAAAGUUAUCAGGCAUGCACCUGGUAGCUAGUCUUUAAACCAAUAGAUUGCAUCGGUUUAAAAGGCAAGACCGUCAAAUUGCGGGAAAGGGGUCAACAGCCGUUCAGUACCAAGUCUCAGGGGAAACUUUGAGAUGGCCUUGCAAAGGGUAUGGUAAUAAGCUGACGGACAUGGUCCUAACCACGCAGCCAAGUCCUAAGUCAACAGAUCUUCUGUUGAUAUGGAUGCAGUUCACAGACUAAAUGUCGGUCGGGGAAGAUGUAUUCUUCUCAUAAGAUAUAGUCGGACCUCUCCUUAAUGGGAGCUAGCGGAUGAAGUGAUGCAACACUGGAGCCGCUGGGAACUAAUUUGUAUGCGAAAGUAUAUUGAUUAGUUUUGGAGUACUCGUGGUCG
How it was run: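 Pooled colonies went to amplicon sequencing on an Illumina HiSeq 2500 after six replicate transformations. The plates were LB agar with 100 μg/mL carbenicillin, 50 μM IPTG and 0.2% rhamnose, with or without 25 μg/mL kanamycin, incubated overnight at 37°C or 30°C. The E. coli BL21(DE3) library had all eight P1ex-region intron nucleotides randomised, the intron placed in the knt kanamycin-resistance gene on pET-22b(+). DiMSum fitness is the error-weighted combination of replicate fold changes, kanamycin against none, normalised to wild type.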

Sequence	self-splicing fitness (ln) (30 °C)	self-splicing fitness (ln) (37 °C)
CUAUAGCAAUAUUACGGUAA	-3.01 ± 0.23	-1.69 ± 0.18
CUAUAGCAAUAUUACGGUAU	-4.43 ± 0.36	-3.22 ± 0.27
CUAUAGCAAUAUUACGGUUG	-0.804 ± 0.088	0.0411 ± 0.1
CUAUAGCAAUAUUACGGUUU	-3.72 ± 0.12	-2.58 ± 0.17
CUAUAGCAAUAUUACGUGGA	-2.83 ± 0.19	-2.4 ± 0.27
CUAUAGCAAUAUUACGUUAC	-3.45 ± 0.25	-2.14 ± 0.33
CUAUAGCAAUAUUACGUUGG	-3.71 ± 0.16	-2.79 ± 0.17
CUCAAGCAAUAUUACGAAGU	-3.75 ± 0.2	-2.36 ± 0.21
CUCAAGCAAUAUUACGACGU	-2.18 ± 0.098	-1.54 ± 0.11
CUCAAGCAAUAUUACGAGAC	-3.27 ± 0.21	-2.35 ± 0.23
CUCAAGCAAUAUUACGAGCG	-3 ± 0.15	-1.31 ± 0.12
CUCAAGCAAUAUUACGAGGG	–	-2.8 ± 0.43
CUCAAGCAAUAUUACGAUAC	-1.63 ± 0.18	–
CUCAAGCAAUAUUACGAUUA	-3.59 ± 0.47	-2.37 ± 0.23
CUCAAGCAAUAUUACGCACU	-3.2 ± 0.24	-2.08 ± 0.28
CUCAAGCAAUAUUACGCUAC	-4.12 ± 0.29	-2.23 ± 0.24
CUCAAGCAAUAUUACGCUUU	-4.09 ± 0.37	-3.52 ± 0.31
CUCAAGCAAUAUUACGGAAA	-3.21 ± 0.28	-2.6 ± 0.25
CUCAAGCAAUAUUACGGCAU	-2.66 ± 0.18	-1.58 ± 0.24
CUCAAGCAAUAUUACGGGUG	-1.43 ± 0.059	-1.2 ± 0.073
CUCAAGCAAUAUUACGGUGA	-2.9 ± 0.12	-1.29 ± 0.12
CUCAAGCAAUAUUACGGUUC	-3.65 ± 0.17	-2.74 ± 0.16
CUCAAGCAAUAUUACGUGGU	-3.18 ± 0.12	-2.09 ± 0.12
CUCCAGCAAUAUUACGACCU	-3.4 ± 0.32	–
CUCCAGCAAUAUUACGAGGA	-2.35 ± 0.11	-2.99 ± 0.18

Sequence	self-splicing fitness (ln) (30 °C)	self-splicing fitness (ln) (37 °C)
CUCCAGCAAUAUUACGCCAU	-3.28 ± 0.31	-2.34 ± 0.25
CUCCAGCAAUAUUACGCGAC	-3.79 ± 0.2	-2.31 ± 0.18
CUCCAGCAAUAUUACGCGAG	-2.19 ± 0.2	-2.94 ± 0.3
CUCCAGCAAUAUUACGCGCG	-3.29 ± 0.17	-0.928 ± 0.15
CUCCAGCAAUAUUACGCUAC	-4.08 ± 0.29	-2.75 ± 0.23
CUCCAGCAAUAUUACGCUUG	-3.52 ± 0.19	-2.96 ± 0.21
CUCCAGCAAUAUUACGGGAG	-3.68 ± 0.15	-1.91 ± 0.16
CUCCAGCAAUAUUACGGUAG	-3.88 ± 0.19	-3.24 ± 0.27
CUCCAGCAAUAUUACGGUCC	-3.11 ± 0.17	-2.83 ± 0.38
CUCCAGCAAUAUUACGUACU	-3.3 ± 0.29	-3.21 ± 0.28
CUCCAGCAAUAUUACGUCAG	-1.2 ± 0.067	-0.906 ± 0.098
CUCCAGCAAUAUUACGUCUU	-4.45 ± 0.28	-2.88 ± 0.16
CUCCAGCAAUAUUACGUGAU	-2.1 ± 0.078	-1.59 ± 0.1
CUCCAGCAAUAUUACGUUAA	-3.9 ± 0.25	-2.68 ± 0.36
CUCCAGCAAUAUUACGUUUA	-3.31 ± 0.27	-2.27 ± 0.18
CUCGAGCAAUAUUACGACGG	-1.94 ± 0.15	-0.385 ± 0.18
CUCGAGCAAUAUUACGAUGA	-2.19 ± 0.19	-1.36 ± 0.2
CUCGAGCAAUAUUACGCCUG	-3.03 ± 0.24	-2.58 ± 0.49
CUCGAGCAAUAUUACGCGGG	-3.9 ± 0.39	–
CUCGAGCAAUAUUACGCGUC	–	-2.79 ± 0.32
CUCGAGCAAUAUUACGCUUA	-2.27 ± 0.47	-2.22 ± 0.34
CUCGAGCAAUAUUACGGAGA	-2.57 ± 0.36	-1.72 ± 0.28
CUCGAGCAAUAUUACGGAUA	-2.79 ± 0.28	-3.68 ± 0.46
CUCGAGCAAUAUUACGGCUU	-2.57 ± 0.47	–
